From ChEMBL document CHEMBL1140664, “Asymmetrical ligand binding by abscisic acid 8'-hydroxylase” (Bioorg Med Chem, 2007)

Substrate: CC1=CC(=O)CC(C)(C)[C@@]1(O)/C=C/C(C)=C\C(=O)O
Experiment: Activity of Arabidopsis thaliana recombinant CYP707A3

B1: Abscisic acid 8'-hydroxylase 3 (Arabidopsis thaliana) (protein)
chain: MDFSGLFLTLSAAALFLCLLRFIAGVRRSSSTKLPLPPGTMGYPYVGETFQLYSQDPNVFFAAKQRRYGSVFKTHVLGCPCVMISSPEAAKFVLVTKSHLFKPTFPASKERMLGKQAIFFHQGDYHSKLRKLVLRAFMPDAIRNMVPHIESIAQESLNSWDGTQLNTYQEMKTYTFNVALISILGKDEVYYREDLKRCYYILEKGYNSMPINLPGTLFHKAMKARKELAQILANILSKRRQNPSSHTDLLGSFMEDKAGLTDEQIADNIIGVIFAARDTTASVLTWILKYLADNPTVLEAVTEEQMAIRKDKKEGESLTWEDTKKMPLTYRVIQETLRAATILSFTFREAVEDVEYEGYLIPKGWKVLPLFRNIHHNADIFSDPGKFDPSRFEVAPKPNTFMPFGSGIHSCPGNELAKLEISVLIHHLTTKYRWSIVGPSDGIQYGPFALPQNGLPIALERKP
Km: 0.71 µM
